This is an account of results in patent US20240352452, “CRISPR-BASED PROTEIN BARCODING AND SURFACE ASSEMBLY” (The Brigham and Women's Hospital, Inc., published 2024).

Data set [1] addresses T1, dCas9-6His (UniProt Q99ZW2 SEQ:1-1368). The experiment in a line: dsDNA microarray, anti-6His; PAM NGG; 37 C 16 h, 50 mM Tris pH 7.4, 150 mM NaCl. The note with it: tags: C-terminal 6His (pdCas9-bacteria, Addgene #44249 derived); label: Cy3-dUTP.
Data set [2] has as its target T2, dCas9-HA (UniProt Q99ZW2 SEQ:1-1368). In words: dsDNA microarray, anti-HA; PAM NGG. The note with it: label: Cy3-dUTP.
The target of data set [3] is T1, dCas9-6His. In words: off-target probe with PAM; dsDNA microarray. The note with it: tags: C-terminal 6His (pdCas9-bacteria, Addgene #44249 derived); label: Cy3-dUTP.
For data set [4], the target named is T2, dCas9-HA. In words: no-PAM control; binding depended on PAM. The note with it: label: Cy3-dUTP.
For data set [5], the target named is T1, dCas9-6His. In words: dsDNA microarray, perfect match; PAM NGG. The note with it: tags: C-terminal 6His (pdCas9-bacteria, Addgene #44249 derived); label: Cy3-dUTP.
The target in a further data set is dCas9-scFv B1-182.1 (UniProt Q99ZW2 SEQ:1-1368). In words: dsDNA microarray; detected via spike antigen and CR3022; PAM NGG. The conditions noted are these: tags: C-terminal anti-spike scFv B1-182.1 fusion and 6His (Addgene #186421); label: Cy3-dUTP.
Data set [6] deals with T3, dCas9-myc (UniProt Q99ZW2 SEQ:1-1368). In words: dsDNA microarray, anti-myc; PAM NGG. The conditions noted are these: label: Cy3-dUTP.
The target of data set [7] is T3, dCas9-myc. In words: no-PAM control; binding depended on PAM. The conditions noted are these: label: Cy3-dUTP.

Positions count from the first letter of the chain named.

B1: sgRNA spacer CCGUACC ; probe for G1 (ssRNA ; dsDNA)
RNA: CCGUACCUAGAUACACUCAAGUUUUAGAGCUAGAAAUAGCAAGUUAAAAUAAGGCUAGUCCGUUAUCAACUUGAAAAAGUGGCACCGAGUCGGUGC
DNA 1: GAGCGACGCTGCACCATTGAGTGTATCTAGGTACGGCCCGACCTCACCCG
DNA 2: CGGGTGAGGTCGGGCCGTACCTAGATACACTCAATGGTGCAGCGTCGCTC
In the case of B1, the binding result with dCas9-6His [1] and with dCas9-HA [2] was “binds” throughout.

B2: sgRNA spacer CCGUACC ; probe for G2 (ssRNA ; dsDNA)
RNA: B1 RNA
DNA 1: GAGCGACGCTGCACCAATGCGGAGGGTTTCTTTTATCCCGACCTCACCCG
DNA 2: CGGGTGAGGTCGGGATAAAAGAAACCCTCCGCATTGGTGCAGCGTCGCTC
With B2, the binding result in the data set with dCas9-6His [3] is recorded as “no binding”.

B3: sgRNA spacer CCGUACC ; probe for G1, no PAM (ssRNA ; dsDNA)
RNA: B1 RNA
DNA 1: B1 DNA 1 with C15G
DNA 2: B1 DNA 2 with G36C
Turning to B3, the binding result in the data set with dCas9-HA [4] was “no binding”.

B4: sgRNA spacer UCCAUAG ; probe for G5 (ssRNA ; dsDNA)
RNA: UCCAUAGAUUUCUCCGUGAGGUUUUAGAGCUAGAAAUAGCAAGUUAAAAUAAGGCUAGUCCGUUAUCAACUUGAAAAAGUGGCACCGAGUCGGUGC
DNA 1: GAGCGACGCTGCACCACTCACGGAGAAATCTATGGACCCGACCTCACCCG
DNA 2: CGGGTGAGGTCGGGTCCATAGATTTCTCCGTGAGTGGTGCAGCGTCGCTC
Turning to B4, the binding result with dCas9-6His [5] and with dCas9-scFv B1-182.1 was “binds” each time.

B5: sgRNA spacer CACUGUU ; probe for G4 (ssRNA ; dsDNA)
RNA: CACUGUUUAACAAGCCCGUCGUUUUAGAGCUAGAAAUAGCAAGUUAAAAUAAGGCUAGUCCGUUAUCAACUUGAAAAAGUGGCACCGAGUCGGUGC
DNA 1: GAGCGACGCTGCACCAGACGGGCTTGTTAAACAGTGCCCGACCTCACCCG
DNA 2: CGGGTGAGGTCGGGCACTGTTTAACAAGCCCGTCTGGTGCAGCGTCGCTC
As for B5, the binding result with dCas9-6His [5] is “binds”.

B6: sgRNA spacer AUAAAAG ; probe for G2 (ssRNA ; dsDNA)
RNA: AUAAAAGAAACCCUCCGCAUGUUUUAGAGCUAGAAAUAGCAAGUUAAAAUAAGGCUAGUCCGUUAUCAACUUGAAAAAGUGGCACCGAGUCGGUGC
DNA 1: B2 DNA 1
DNA 2: B2 DNA 2
On to B6, for which the binding result with dCas9-myc [6] is given as “binds”.

B7: sgRNA spacer AUAAAAG ; probe for G2, no PAM (ssRNA ; dsDNA)
RNA: B6 RNA
DNA 1: B2 DNA 1 with C15G
DNA 2: B2 DNA 2 with G36C
Turning to B7, the binding result with dCas9-myc [7] is “no binding”.

B8: sgRNA spacer AGAGACU ; probe for G3 (ssRNA ; dsDNA)
RNA: AGAGACUGCCCGACACAUCUGUUUUAGAGCUAGAAAUAGCAAGUUAAAAUAAGGCUAGUCCGUUAUCAACUUGAAAAAGUGGCACCGAGUCGGUGC
DNA 1: GAGCGACGCTGCACCAAGATGTGTCGGGCAGTCTCTCCCGACCTCACCCG
DNA 2: CGGGTGAGGTCGGGAGAGACTGCCCGACACATCTTGGTGCAGCGTCGCTC
In the case of B8, in the data set with dCas9-6His [5], the binding result is listed as “binds”.
